This note sets out measurements from patent US20200407449A1 (PHARMABCINE, published 2020).

For assay [1], the target named is T1, hVISTA-Fc (R&D systems. Cat. No. 7126-B7) (human, UniProt Q9H7M9 33-194).
T1 construct: Bought antigen; also called human VISTA-Fc; VISTA-FC Human
T1 sequence: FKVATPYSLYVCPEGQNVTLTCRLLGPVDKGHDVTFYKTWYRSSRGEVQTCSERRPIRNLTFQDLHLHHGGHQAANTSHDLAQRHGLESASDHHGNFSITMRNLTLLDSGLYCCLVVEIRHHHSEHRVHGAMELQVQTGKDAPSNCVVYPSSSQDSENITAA
The experiment in a line: monoclonal scFv phage ELISA, plate coated with 1 ug/ml VISTA-Fc, anti-M13-HRP. The protocol: After the panning process was completed, the final round cell stock was diluted to form 200 to 500 colonies, spread on a CM agar plate, and then incubated overnight at 37° C. The next day, when the colonies grew, 200 μl of 2xYT medium (CM 34 μg/ml+1% glucose) was plated onto a 96-well deep plate, the colony was inserted into each well one by one and the plate was then incubated overnight at 37° C. and 3,000 rpm. The next day, 200 μl of 2×YT medium (CM 34 μg/ml+1% glucose) was plated onto a new 96-well dip plate, and […] of cells grown the day before were injected into each well and grown at 37° C. and 3,000 rpm for 1 hour and 10 minutes. The remaining cells were stored at −70° C. in 100 pμl of 50% glycerol. When the cells grew, 1 μl of a helper phage was mixed with 19 μl of 2×YT medium, and 20 μl of the resulting mixture was injected into each well and incubated for 30 minutes at 37° C. After incubation, centrifugation was performed at 3,000 rpm for 10 minutes. The supernatant was discarded and 200 μl of 2×YT medium (CM 34 μg/ml+Kan. 70 μg/ml+1 mM IPTG+5 mM MgCl₂) was added to the residue, followed by incubation in MegaGrow at 30° C. and 3,000 rpm overnight.
1 μg/ml of Ag (hVISTA-Fc, mVISTA-Fc) was plated at 100 μl/well onto a 96-well immunoplate and then incubated overnight at 4° C. The next day, the cells grown the day before were centrifuged at 3,000 rpm for 10 minutes and stored at 4° C. The plated Ag was washed 3 times with 0.05% PBST, and then 200 μl of 2% BSA blocking buffer was added thereto, followed by incubation at 25° C. for 2 hours. After blocking was completed, the result was washed 3 times with 0.05% PBST. […] After phage binding was completed, the reaction product was washed three times with 0.05% PBST, 100 μl of HRP-conjugated mouse anti-M13 antibody (1:3000, #GE 27-9421-01) was added thereto, and reaction was allowed to proceed at 25° C. for 1 hour. After the reaction was completed, the resulting product was washed 3 times with 0.05% PBST, 100 μl of TMB (#BD TMB substrate reagent set 555214) was added thereto, color was developed for 3 to 5 minutes, 50 μl of a stop solution was added thereto, and then an assay was performed using an ELISA reader.
(In general: ELISA stands for enzyme-linked immunosorbent assay.)

For assay [2], the target named is T1, hVISTA-Fc (R&D systems. Cat. No. …). The experiment in a line: Octet (BLI), antibody as ligand on biosensor, VISTA-Fc as analyte. As to the method:
(§1) The binding ability of the screened antibody to the antigen was measured using an Octet (ForteBio). For this purpose, the antibody was immobilized on a biosensor, various concentrations of antigen were added to a 96-well plate, and then the binding ability was measured.
Octet was used to evaluate the binding strength of the optimized anti-VISTA antibody while excluding clones with low productivity therefrom, and the experiment was performed in the same manner as the method presented in Example 6 (Table 11).
A general note: Biolayer interferometry detects binding as a change in optical thickness at a sensor tip.

Assay [3] has the same target. The assay is described as follows: Octet (BLI), antibody immobilised on biosensor, antigen in solution. As to the method: as §1
Assay [4] shares this target. The experiment in a line: dissociation rate constant of scFv in the screening of optimised clones; antigen not named.
Assay [5] has as its target T2, mouse VISTA-Fc (mouse, UniProt Q9D659 33-191).
T2 construct: extracellular domain; also called mVISTA-Fc; VISTA-FC Mouse; not shown: Fc portion
T2 sequence (looked up): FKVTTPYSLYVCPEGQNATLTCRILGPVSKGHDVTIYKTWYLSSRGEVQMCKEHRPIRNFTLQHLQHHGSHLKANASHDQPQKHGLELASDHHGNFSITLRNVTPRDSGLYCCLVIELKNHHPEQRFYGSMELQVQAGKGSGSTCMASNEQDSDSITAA
The experiment in a line: Octet (BLI), antibody immobilised on biosensor, antigen in solution. The protocol:
as §1

Numbering of substitutions follows the chain as printed.

B1: 1A12 monoclonal scFv phage (scFv, V domains shown)
VH: QMQLVESGGGLVEPGRSLRLSCTTSGFSFHDYTMYWVRQVPGKGLEWVSLISWDGTITFYADPVRGRFTISRDNSKNSLYLQMNSLRAEDTAVYYCAKEDRYDYYSGAFDIWGQGTVVTVSS
VL: QSALTQPRSVSGSPGQSVTISCTGTSSDVGGYDYVSWYQQHPGKAPKLILNDVNKRPSGVPDRFSGSKSGNTASLTISGLQPDDEADYYCSSFAGSNTLRVFGGGTKLTVLG
As to B1, the OD in assay [1] is 1.88 OD.

B2: 3C5 monoclonal scFv phage (scFv, V domains shown)
VH: QVQLVQSGAEVKKPGASVKLSCKASGYTFSSYWMHWVRQAPGQRLEWMGEINPGNGHTNYNEKFKSRVTITVDKSASTAYMELSSLRSEDTAVYYCAKDIAYYDFWSGDAFDLWGQGTMVTVSS
VL: SYELTQPLSVSVSPGQTASITCSGDKLGNKYASWYQQKPGQSPVLVIYQDNKRPSGIPERFSGSNSGNTATLTISGTQATDEADYYCQTWDRSTGVFGTGTKVTVLG
With B2, the OD in assay [1] is 2.2 OD.

B3: anti-VISTA antibody 1B8 (IgG form) (antibody, V domains shown)
VH: QMQLVQSGAEVKKPGSSVKVSCKASGGSSSNYAISWVRQAPGQGLEWMGGIIPIFGTTSYAQKFQGRVTITADGSMSTAYMELSSLRSEDTAVYYCAKGAIEPWPFYFDNWGQGTLVTVSS
VL: QLVLTQPRSVSGSPGQSVTISCTGTNSDVGAYNYLSWYQQLPGRAPKVIIYDVNKRPSGVPDRFSGSRSGKTASLTISGLQAEDEADYYCAAWDDSLNGLVFGGGTKLTVLG
notes: also called Anti VISTA 3.0(1B8); anti-VISTA mAb 1B8
In assay [2], B3 displayed a dissociation constant Kd of 13.6 nM, a koff of 0.00209 s⁻¹ and an on-rate constant (kon) of 154000 M⁻¹ s⁻¹. In assay [3], this molecule came in with an equilibrium dissociation constant (Kd) of 9.29 nM, a koff of 0.00103 s⁻¹ and a kon of 111000 M⁻¹ s⁻¹.

B4: PMC-309.3.4SA (antibody, V domains shown)
VH: B3 VH with M2V, G74K, M76T
VL: QSALTQPRSVSGSPGQSVTISCTGTNSDVGAYNYLSWYQQLPGRAPKVIIYDVNKRPSGVPDRFSGSRSGKTASLTISGLQAEDEADYYCAAWDDNLYGLVFGGGTKLTVL
notes: light chain SA; also called PMC-309.3.45A
On to B4, for which, in assay [2], the Kd turned out to be 0.606 nM, the koff was 0.000134 s⁻¹ and the kon came out at 225000 M⁻¹ s⁻¹.

B5: 1B8 monoclonal scFv phage (scFv, V domains shown)
VH: B3 VH
VL: B3 VL
notes: also called IB8; Anti VISTA.3.0 (1B8)
For the molecule B5, the OD in assay [1] was 2.13 OD. In assay [4], this molecule returned a koff of 0.000732 s⁻¹.

B6: Anti VISTA_V3_2 (IgG form) (antibody, V domains shown)
VH: B3 VH
VL: B3 VL with G99D
As for B6, in assay [2], the Kd came out at 12.8 nM, the off-rate (koff) was found to be 0.00191 s⁻¹ and the kon was 149000 M⁻¹ s⁻¹.

B7: PMC-309.3.4w (antibody, V domains shown)
VH: B3 VH with M2V, G74K, M76T
VL: B3 VL with S96N, N98Y
notes: Heavy chain G-H (framework substituted), wt light chain
In assay [2], B7 had a Kd of 0.496 nM, a koff of 9.38e-05 s⁻¹ and a kon of 189000 M⁻¹ s⁻¹.

B8: Anti VISTA_B5 (scFv phage clone) (scFv, V domains shown)
VH: B3 VH
VL: B3 VL with S96D
notes: Optimised 1B8 light-chain CDR3 variant, measured as scFv
For the molecule B8, the koff in assay [4] was determined as 0.000616 s⁻¹.

B9: Anti VISTA_V3_4 (scFv phage clone) (scFv, V domains shown)
VH: B3 VH
VL: B3 VL with S96N, L97S, N98D, G99F, L100H
notes: Optimised 1B8 variant that retains the 1B8 heavy-chain variable region, measured as scFv
B9 had a koff in assay [4] of 0.00222 s⁻¹.

B10: Anti VISTA_V3_1 (scFv phage clone) (scFv, V domains shown)
VH: B3 VH
VL: B3 VL with N98Y
notes: as for B9
As for B10, the koff in assay [4] was determined as 0.000487 s⁻¹.

B11: Anti VISTA_V3_3 (scFv phage clone) (scFv, V domains shown)
VH: B3 VH
VL: B3 VL with G99V
notes: as for B9
Molecule B11 returned a koff in assay [4] of 0.00127 s⁻¹.

B12: Anti VISTA_V3_2 (scFv phage clone) (scFv, V domains shown)
VH: B3 VH
VL: B3 VL with G99D
notes: as for B9
B12 yielded a koff in assay [4] of 0.00108 s⁻¹.

B13: Anti VISTA_V3_1 (IgG form) (antibody, V domains shown)
VH: B3 VH
VL: B3 VL with N98Y
In assay [2], B13 registered a Kd of 2.86 nM, a koff of 0.00015 s⁻¹ and a kon of 52500 M⁻¹ s⁻¹.

B14: Anti VISTA_G1 (scFv phage clone) (scFv, V domains shown)
VH: B3 VH
VL: B3 VL with N98I, L100H
notes: as for B9
The molecule B14 yielded a koff in assay [4] of 0.000574 s⁻¹.

B15: PMC-309.3.3 (antibody, V domains shown)
VH: B3 VH
VL: B3 VL with S96N, N98Y
Turning to B15, in assay [2], binding was characterised by a dissociation constant (Kd) of 0.516 nM, the koff was 9.56e-05 s⁻¹ and the kon came out at 185000 M⁻¹ s⁻¹.

B16: Anti VISTA_H2 (scFv phage clone) (scFv, V domains shown)
VH: B3 VH
VL: B3 VL with S96N
notes: as for B9
On to B16, for which the dissociation rate constant (koff) in assay [4] came out at 0.000285 s⁻¹.

B17: anti-VISTA antibody 2C12 (IgG form) (antibody, V domains shown)
VH: QVQLVESGAEVKKPGASVKVSCKASGYIFTDYYMHWVRQAPGQGLEWMGVINPYDGRTSFAQKFQGRLTVTRDTSTSTAYMDLSGLRSEDTAVYYCAKQMGIWDYDAFDIWGQGTMVTVSS
VL: QFVLTQPSSVSGAPGQRVIISCTGSSSNIGAGYDVHWYQQLPGTAPKVLIYGNSDRPSGVPDRFSASKSATSASLAITGLQAEDEADYYCVAWDDSLKAYVFGTGTKVTVLG
notes: also called #2C12(H); #2C12(M)
In assay [3], B17 yielded a Kd of 1.02 nM, a koff of 8.48e-05 s⁻¹ and a kon of 83400 M⁻¹ s⁻¹. For the same molecule, in assay [5], binding was characterised by a dissociation constant (Kd) of 14 nM, the koff was found to be 0.00078 s⁻¹ and the kon was determined as 55700 M⁻¹ s⁻¹.

B18: anti-VISTA antibody 2B7 (IgG form) (antibody, V domains shown)
VH: QVQLVQSGGGLVKPGGSLRLSCAASGFTFSGSAMHWVRQASGKGLEWVGRIRSKANSYATAYAASVKGRFTISRDDSKNTAYLQMNSLKTEDTAVYYCSRVNSGYYGPDYWGKGTLVTVSS
VL: not shown
In assay [3], B18 came in with a Kd of 5.8 nM, a koff of 0.000142 s⁻¹ and a kon of 24500 M⁻¹ s⁻¹.

One may read the Kd as the concentration at which binding is half-saturated. Low values mean higher affinity, high ones lower affinity. By koff is commonly meant the rate constant with which the complex falls apart. Low values mean a long-lived complex, high ones a short-lived complex. As usually defined, the kon is the rate constant with which the complex forms. A low value points to slower complex formation.
